Values joined by “and” are separate entries in the source; they are usually repeats but may differ in a detail not shown here. Identical values can stand only once.

The target in the assay is ACE (angiotensin-I converting enzyme) from rabbit lung (rabbit) (UniProt P12822).
Sequence of UniProt P12822 (P12822 34-1310): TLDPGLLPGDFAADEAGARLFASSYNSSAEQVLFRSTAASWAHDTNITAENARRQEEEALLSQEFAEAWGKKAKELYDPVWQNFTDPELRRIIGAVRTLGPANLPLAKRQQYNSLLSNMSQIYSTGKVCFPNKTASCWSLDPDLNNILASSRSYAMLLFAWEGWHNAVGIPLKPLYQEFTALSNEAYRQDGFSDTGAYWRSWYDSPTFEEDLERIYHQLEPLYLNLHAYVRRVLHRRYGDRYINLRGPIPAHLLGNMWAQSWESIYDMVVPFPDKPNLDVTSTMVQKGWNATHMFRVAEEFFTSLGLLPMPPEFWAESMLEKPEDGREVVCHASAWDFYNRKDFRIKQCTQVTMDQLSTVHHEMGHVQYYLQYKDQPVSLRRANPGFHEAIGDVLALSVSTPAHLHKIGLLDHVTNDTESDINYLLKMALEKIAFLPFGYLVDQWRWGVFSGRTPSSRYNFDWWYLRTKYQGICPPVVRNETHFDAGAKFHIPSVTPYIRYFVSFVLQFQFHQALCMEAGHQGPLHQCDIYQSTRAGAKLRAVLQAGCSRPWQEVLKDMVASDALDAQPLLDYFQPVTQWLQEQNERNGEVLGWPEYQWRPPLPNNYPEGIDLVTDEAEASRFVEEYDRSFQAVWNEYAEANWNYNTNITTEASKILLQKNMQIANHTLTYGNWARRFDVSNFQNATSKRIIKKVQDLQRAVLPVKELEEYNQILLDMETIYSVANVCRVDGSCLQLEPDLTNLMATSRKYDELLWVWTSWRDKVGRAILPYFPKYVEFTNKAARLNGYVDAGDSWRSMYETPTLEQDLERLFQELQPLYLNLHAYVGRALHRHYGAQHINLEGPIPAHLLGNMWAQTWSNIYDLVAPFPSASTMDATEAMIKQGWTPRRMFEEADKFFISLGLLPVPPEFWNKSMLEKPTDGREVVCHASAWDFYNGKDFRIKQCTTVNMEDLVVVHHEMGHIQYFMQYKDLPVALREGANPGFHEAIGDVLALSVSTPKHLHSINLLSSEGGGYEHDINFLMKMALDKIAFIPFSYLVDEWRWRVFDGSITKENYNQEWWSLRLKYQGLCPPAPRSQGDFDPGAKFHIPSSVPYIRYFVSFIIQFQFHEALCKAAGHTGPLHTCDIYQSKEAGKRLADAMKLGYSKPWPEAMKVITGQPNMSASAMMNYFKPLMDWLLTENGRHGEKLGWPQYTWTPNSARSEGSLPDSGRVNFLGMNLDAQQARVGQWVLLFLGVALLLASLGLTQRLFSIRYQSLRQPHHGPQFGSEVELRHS

On to IER tripeptide, for which the ACE inhibition (FAPGG hydrolysis, absorbance at 340 nm), IC50 is 0.06 mg/ml and 0.144 mM.

The values are drawn from paper PMC7055321.
